Read-outs that look alike come from different tables or passages of the source.
B1: MAb 695 (antibody, V domains shown)
VH: EVQLLESGGGLIQPGGSLRLSCAASGFTVSSNYMSWVRQAPGKGLEWVSVIYSGGRTYYADSVKGRFTISRDSSKNTLYLQMNSLRAEDTAVYYCARNYYGSTYDYWGQGTLVTVSS
VL: EIVLTQSPVTLSVPPGERASLSCRASQNIYTAVAWYQQKPGQAPRLLIYGASTRATGIPARFSGGGSGTDYTLTISSLESEDFAVYHCQQYHSWPLTFGGGTKLEIK
notes: also called 121 D11; H1192/L250
B2: MAb 1007 (antibody, V domains shown)
VH: EVQLVESGGGLIQPGGSLRLSCAVSGLNVSRDYMSWVRQAPGKGLEWISVIYRGGATMYADSVKGRFTISRDTSKNTVFLQMSRLKVADTAVYYCARNYYGSTYDYWGQGTLVTVSS
VL: EIVLTQSPVTLSVPPGERASLSCRASQNIYTAVAWYQQKPGQAPRLLIYGASTRATGIPARFSGGGSGTDYTLTISSLESEDFAVYHCQQWHSWPLTFGGGTKLEIK
B3: MAb 698 (antibody, V domains shown)
VH: EVQLLESGGGLIQPGGSLRLSCAASGFTVGNNYMSWVRQAPGKGLEWVSVIYSAGSTYYADSVKGRFIISRDNSKDTVYLQMNSLRVDDTAVYYCARNYYGSTYDYWGQGTLVTVSS
VL: EIVLTQSPVTLSVPPGERASLSCRASQNIYTAVAWYQQKPGQAPRLLIYGASTRATGIPARFSGGGSGTDYTLTISSLESEDFAVYHCQQYHSWPLTFGGGTKLEIK
notes: also called 131 E11; H1272/L250
B4: MAb 699 (antibody, V domains shown)
VH: EVQLLESGGGLIQPGGSLRLSCAASGFTVSSNYMSWVRQAPGKGLEWVSVIYSGGSTYYADSVKGRFTISRDNAKNTVYLQMNSLRSEDTAVYYCARNYYGSTYDYWGQGTLVTVSS
VL: EIVLTQSPVTLSVPPGERASLSCRASQNIYTAVAWYQQKPGQAPRLLIYGASTRATGIPARFSGGGSGTDYTLTISSLESEDFAVYHCQQYHSWPLTFGGGTKLEIK
notes: also called 183 E9; H1273/L250
B5: MAb 716 (antibody, V domains shown)
VH: EVQLLESGGGLIQPGGSLRLSCAASGFTVSSNYMSWVRQAPGKGLEWVSVIYSGGSTYYADSVKGRFTISRDNSKNTLYLQMNSLRAEDTAVYYCARNYYGSTYDYWGQGTLVTVSS
VL: EIVLTQSPVTLSVPPGERASLSCRASQNIYTAVAWYQQKPGQAPRLLIYGASTRATGIPARFSGGGSGTDYTLTISSLESEDFAVYHCQQYHSWPLTFGGGTKLEIK
notes: also called 142 F2; H1280/L250
B6: MAb 715 (antibody, V domains shown)
VH: EVQLLESGGGLIQPGGSLRLSCAASGFTVSNNYMSWVRQAPGKGLQWVAVIYSGGSTYYPDSMKGRFTISRDNSKNTLYLQMNSLRAEDTAVYYCARNYYGSTYDYWGQGTLVTVSS
VL: EIVLTQSPVTLSVPPGERASLSCRASQNIYTAVAWYQQKPGQAPRLLIYGASTRATGIPARFSGGGSGTDYTLTISSLESEDFAVYHCQQYHSWPLTFGGGTKLEIK
notes: also called 141 F2; H1278/L250
B7: MAb 714 (antibody, V domains shown)
VH: EVQLVESGGGLVQPGGSLKLSCAASGFTVSSNYMSWVRQAPGKGLEWVSVIYRGGSTYYADSVKGRFTISRDISRNMVYLQMNSLRAEDTAVYYCARNYYGSTYDYWGQGTLVTVSS
VL: EIVLTQSPVTLSVPPGERASLSCRASQNIYTAVAWYQQKPGQAPRLLIYGASTRATGIPARFSGGGSGTDYTLTISSLESEDFAVYHCQQYHSWPLTFGGGTKLEIK
notes: also called 141 A10; H1277/L250
B8: MAb 696 (antibody, V domains shown)
VH: EVQLVESGGGLIQPGGSLRLSCAASGFTVSSNYMSWVRQAPGKGLEWVSVIYSGGRTYYADSVKGRFTISRDSSKNTLYLQMNSLRAEDTAVYYCARNYYGSTYDYWGQGTLVTVSS
VL: EIVLTQSPVTLSVPPGERASLSCRASQNIYTAVAWYQQKPGQAPRLLIYGASTRATGIPARFSGGGSGTDYTLTISSLESEDFAVYHCQQYHSWPLTFGGGTKLEIK
notes: also called 121 E1B; H1193/L250

Key:
[1] = target: T1, tumor necrosis factor alpha (TNFα) (human, UniProt P01375 77-233); assay: cell-based or functional assay
T1 sequence (P01375 77-233 limits assumed): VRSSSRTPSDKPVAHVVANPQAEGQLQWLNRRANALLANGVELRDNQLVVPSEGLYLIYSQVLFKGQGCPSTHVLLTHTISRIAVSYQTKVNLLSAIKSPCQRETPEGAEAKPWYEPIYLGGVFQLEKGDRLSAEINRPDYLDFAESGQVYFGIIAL

[2] = target: T1, tumor necrosis factor alpha (TNFα); assay: affinity by IC50 ELISA (so named in paragraph 380)
[3] = target: T1, tumor necrosis factor alpha (TNFα); assay: affinity by IC50 ELISA (so named in paragraph 380); remark: listed apart in the source

Row | Binder | IC50, TNFα cytotoxicity assay (WEHI-13VAR cells) [1] [nM] | Affinity [2] [nM] | Affinity [3] [nM]
1 | B1 | 22.9 | 0.6 | 0.6
2 | B2 | 12.2 | – | –
3 | B3 | 152 | 2.3 | 2.3
4 | B4 | 350 | 7.3 | 7.3
5 | B5 | 31.4 | > 10 | > 10
6 | B6 | 21.4 | 0.6 | 0.6
7 | B7 | 7.75 | 0.4 | 0.4
8 | B8 | – | 0.6 | 0.6

Reference: patent US20080267974A1 (SCHERING, published 2008)
